Test results as given in patent US20160272683A1 (Novo Nordisk, published 2016).
One block for each molecule: values may come before it. Numbered stars: 1 amine (or outer) side, 2 acyl side, 3 side chain; on linkers, the order of the positions; unused ones are H or OH. Side chains are listed from the residue outwards. Ends that are not written are not given here. * marks the point of attachment. C20 diacid = O=C(O)CCCCCCCCCCCCCCCCCCC(=O)*; C18 diacid = O=C(O)CCCCCCCCCCCCCCCCC(=O)*; C16 diacid = O=C(O)CCCCCCCCCCCCCCC(=O)*; γGlu = O=C(O)[C@H](CCC(=O)[*:2])N[*:1]; C14 diacid = O=C(O)CCCCCCCCCCCCC(=O)*; AEEA = NCCOCCOCC(=O)O

Legend:
[1] = biological target: rat amylin receptor (rat calcitonin receptor with rat RAMP 3) (rat) (UniProt P32214); assay: SPA competition vs 125I-rat amylin, membranes with rat CTR + rat RAMP3 (Assay VI)
[2] = biological target: T1, human amylin receptor (amylin 3(a) receptor: human calcitonin receptor with RAMP-3) (human, UniProt P30988 25-474; O60896 24-148, limits assumed); assay: SPA competition vs 125I-rat amylin, membranes with human CTR + RAMP-3 (Assay V)
T1 construct: whole, on cells; Assay V: membranes of the Amylin 3(a)/CRE-luc BHK cells on SPA beads; also called hAmylin-R
T1 sequence (looked up) 1: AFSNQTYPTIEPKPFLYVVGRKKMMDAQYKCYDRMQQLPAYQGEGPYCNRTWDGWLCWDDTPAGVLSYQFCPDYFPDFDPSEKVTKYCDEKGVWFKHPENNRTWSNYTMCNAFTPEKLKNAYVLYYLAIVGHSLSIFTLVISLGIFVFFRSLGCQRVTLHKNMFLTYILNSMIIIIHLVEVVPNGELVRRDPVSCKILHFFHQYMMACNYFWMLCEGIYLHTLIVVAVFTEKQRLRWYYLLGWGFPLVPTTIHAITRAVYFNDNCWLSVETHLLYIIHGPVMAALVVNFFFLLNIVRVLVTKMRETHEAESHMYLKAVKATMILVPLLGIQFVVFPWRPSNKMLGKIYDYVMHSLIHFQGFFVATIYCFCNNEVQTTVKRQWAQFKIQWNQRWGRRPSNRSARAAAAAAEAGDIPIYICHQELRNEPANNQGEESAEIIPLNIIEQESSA
T1 sequence (looked up) 2: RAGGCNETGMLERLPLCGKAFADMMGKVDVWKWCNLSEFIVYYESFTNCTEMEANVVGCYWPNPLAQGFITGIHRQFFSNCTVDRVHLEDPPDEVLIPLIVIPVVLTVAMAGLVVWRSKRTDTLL

[3] = biological target: T2, human calcitonin receptor (human, UniProt P30988 25-474); assay: SPA competition vs 125I-calcitonin, membranes with human CTR (Assay VII)
T2 construct: whole, on cells; Assay VII: membranes on SPA beads; also called hCT-R; hCTR
T2 sequence (looked up): T1 sequence (looked up) 1
Procedure, shortened: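 SPA competition on membranes from BHK tk'ts 13 cells stably expressing human calcitonin receptor plus CRE-luciferase reporter; membranes 35 ng/μL final with 0.05 mg/well beads.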

[4] = biological target: rat calcitonin receptor (rat) (UniProt P32214); assay: SPA competition vs 125I-calcitonin, membranes with rat CTR (Assay VIII)

IC50 [1]: 0.029 nM
Molecule: [N-terminal(C20 diacid-gGlu-2xOEG), des1, 4G, 9V, 15Q, 21Q, 23Y, 30S, 31G, 32T, 33Y]mimylin (peptide)

IC50 [2]: 0.389 nM
IC50 [3]: 0.112 nM
B1: [N-terminal(C20 diacid-gGlu-5xOEG), des1, 30S, 31G]mimylin (peptide)
peptide: {C20 diacid-γGlu-AEEA-AEEA-AEEA-AEEA-AEEA}-ASELSTAALGRLSAELHELATLPRTETGSGSP-NH2
notes: mimylin derivative; des1 = residue 1 deleted; also called Ex. #45; 45

IC50 [2]: 0.054 nM
IC50 [3]: 0.023 nM
B2: [N-terminal(C14 diacid-gGlu), des1, 30S, 31G]mimylin (peptide)
peptide: {C14 diacid-γGlu}-ASELSTAALGRLSAELHELATLPRTETGSGSP-NH2
notes: mimylin derivative; des1 = residue 1 deleted; also called Ex. #50; 50

IC50 [4]: 0.114 nM
B3: [des1, 4K(C20 diacid-gGlu), 30S, 31G]mimylin (peptide)
peptide: ASK([γGlu-C20 diacid])LSTAALGRLSAELHELATLPRTETGSGSP-NH2
modifications: N-terminus assumed
SMILES: CC(C)C[C@H](NC(=O)[C@H](C)NC(=O)[C@H](C)NC(=O)[C@@H](NC(=O)[C@H](CO)NC(=O)[C@H](CC(C)C)NC(=O)[C@H](CCCCNC(=O)CC[C@H](NC(=O)CCCCCCCCCCCCCCCCCCC(=O)O)C(=O)O)NC(=O)[C@H](CO)NC(=O)[C@H](C)N)[C@@H](C)O)C(=O)NCC(=O)N[C@@H](CCCNC(=N)N)C(=O)N[C@@H](CC(C)C)C(=O)N[C@@H](CO)C(=O)N[C@@H](C)C(=O)N[C@@H](CCC(=O)O)C(=O)N[C@@H](CC(C)C)C(=O)N[C@@H](Cc1c[nH]cn1)C(=O)N[C@@H](CCC(=O)O)C(=O)N[C@@H](CC(C)C)C(=O)N[C@@H](C)C(=O)N[C@H](C(=O)N[C@@H](CC(C)C)C(=O)N1CCC[C@H]1C(=O)N[C@@H](CCCNC(=N)N)C(=O)N[C@H](C(=O)N[C@@H](CCC(=O)O)C(=O)N[C@H](C(=O)NCC(=O)N[C@@H](CO)C(=O)NCC(=O)N[C@@H](CO)C(=O)N1CCC[C@H]1C(N)=O)[C@@H](C)O)[C@@H](C)O)[C@@H](C)O

IC50 [2]: 0.516 nM
IC50 [3]: 0.084 nM
B4: [N-terminal(C18 diacid-gGlu), des1, 30S, 31G]mimylin (peptide)
peptide: {C18 diacid-γGlu}-ASELSTAALGRLSAELHELATLPRTETGSGSP-NH2
notes: mimylin derivative; des1 = residue 1 deleted; also called Ex. #46; 46

IC50 [2]: 0.015 nM
IC50 [3]: 0.011 nM
B5: [N-terminal(C16 diacid), des1, 30S, 31G]mimylin (peptide)
peptide: {C16 diacid}-ASELSTAALGRLSAELHELATLPRTETGSGSP-NH2
notes: mimylin derivative; des1 = residue 1 deleted; also called Ex. #49; 49

IC50 [2]: 0.124 nM
IC50 [3]: 0.108 nM
B6: [N-terminal(C20 diacid-gGlu), 1A, 23Y, 30S, 31G]mimylin (peptide)
peptide: {C20 diacid-γGlu}-AASELSTAALGRLSAELHELATYPRTETGSGSP-NH2
SMILES: CC(C)C[C@H](NC(=O)[C@H](C)NC(=O)[C@H](C)NC(=O)[C@@H](NC(=O)[C@H](CO)NC(=O)[C@H](CC(C)C)NC(=O)[C@H](CCC(=O)O)NC(=O)[C@H](CO)NC(=O)[C@H](C)NC(=O)[C@H](C)NC(=O)CC[C@H](NC(=O)CCCCCCCCCCCCCCCCCCC(=O)O)C(=O)O)[C@@H](C)O)C(=O)NCC(=O)N[C@@H](CCCNC(=N)N)C(=O)N[C@@H](CC(C)C)C(=O)N[C@@H](CO)C(=O)N[C@@H](C)C(=O)N[C@@H](CCC(=O)O)C(=O)N[C@@H](CC(C)C)C(=O)N[C@@H](Cc1c[nH]cn1)C(=O)N[C@@H](CCC(=O)O)C(=O)N[C@@H](CC(C)C)C(=O)N[C@@H](C)C(=O)N[C@H](C(=O)N[C@@H](Cc1ccc(O)cc1)C(=O)N1CCC[C@H]1C(=O)N[C@@H](CCCNC(=N)N)C(=O)N[C@H](C(=O)N[C@@H](CCC(=O)O)C(=O)N[C@H](C(=O)NCC(=O)N[C@@H](CO)C(=O)NCC(=O)N[C@@H](CO)C(=O)N1CCC[C@H]1C(N)=O)[C@@H](C)O)[C@@H](C)O)[C@@H](C)O
notes: mimylin derivative; also called Ex. #57; 57

IC50 [2]: 0.077 nM
IC50 [3]: 0.034 nM
B7: [N-terminal(C18 diacid), des1, 30S, 31G]mimylin (peptide)
peptide: {C18 diacid}-ASELSTAALGRLSAELHELATLPRTETGSGSP-NH2
notes: mimylin derivative; des1 = residue 1 deleted; also called Ex. #48; 48

IC50 [2]: 0.164 nM
IC50 [3]: 0.05 nM
B8: [N-terminal(C20 diacid-gGlu-3xOEG), des1, 30S, 31G]mimylin (peptide)
peptide: {C20 diacid-γGlu-AEEA-AEEA-AEEA}-ASELSTAALGRLSAELHELATLPRTETGSGSP-NH2
notes: mimylin derivative; des1 = residue 1 deleted; also called Ex. #43; 43

IC50 [2]: 0.39 nM
IC50 [3]: 0.131 nM
B9: [N-terminal(C20 diacid-gGlu), des1, 4Q, 9V, 15Q, 16R, 19R, 21Q, 23Y, 27Q, 30S, 31Q, 32T, 33Y]mimylin (peptide)
peptide: {C20 diacid-γGlu}-ASQLSTAVLGRLSQRLHRLQTYPRTQTGSQTY-NH2
SMILES: CC(C)C[C@H](NC(=O)[C@H](CCCNC(=N)N)NC(=O)CNC(=O)[C@H](CC(C)C)NC(=O)[C@@H](NC(=O)[C@H](C)NC(=O)[C@@H](NC(=O)[C@H](CO)NC(=O)[C@H](CC(C)C)NC(=O)[C@H](CCC(N)=O)NC(=O)[C@H](CO)NC(=O)[C@H](C)NC(=O)CC[C@H](NC(=O)CCCCCCCCCCCCCCCCCCC(=O)O)C(=O)O)[C@@H](C)O)C(C)C)C(=O)N[C@@H](CO)C(=O)N[C@@H](CCC(N)=O)C(=O)N[C@@H](CCCNC(=N)N)C(=O)N[C@@H](CC(C)C)C(=O)N[C@@H](Cc1c[nH]cn1)C(=O)N[C@@H](CCCNC(=N)N)C(=O)N[C@@H](CC(C)C)C(=O)N[C@@H](CCC(N)=O)C(=O)N[C@H](C(=O)N[C@@H](Cc1ccc(O)cc1)C(=O)N1CCC[C@H]1C(=O)N[C@@H](CCCNC(=N)N)C(=O)N[C@H](C(=O)N[C@@H](CCC(N)=O)C(=O)N[C@H](C(=O)NCC(=O)N[C@@H](CO)C(=O)N[C@@H](CCC(N)=O)C(=O)N[C@H](C(=O)N[C@@H](Cc1ccc(O)cc1)C(N)=O)[C@@H](C)O)[C@@H](C)O)[C@@H](C)O)[C@@H](C)O
notes: mimylin derivative; des1 = residue 1 deleted; also called Ex. #132; 132

IC50 [4]: 0.012 nM
IC50 [1]: 0.078 nM
B10: [N-terminal(C20 diacid-gGlu), des1, 4G, 15Q, 21Q, 23Y, 30S, 31Q, 32T, 33Y]mimylin (peptide)
peptide: {C20 diacid-γGlu}-ASGLSTAALGRLSQELHELQTYPRTETGSQTY-NH2
SMILES: CC(C)C[C@H](NC(=O)CNC(=O)[C@H](CO)NC(=O)[C@H](C)NC(=O)CC[C@H](NC(=O)CCCCCCCCCCCCCCCCCCC(=O)O)C(=O)O)C(=O)N[C@@H](CO)C(=O)N[C@H](C(=O)N[C@@H](C)C(=O)N[C@@H](C)C(=O)N[C@@H](CC(C)C)C(=O)NCC(=O)N[C@@H](CCCNC(=N)N)C(=O)N[C@@H](CC(C)C)C(=O)N[C@@H](CO)C(=O)N[C@@H](CCC(N)=O)C(=O)N[C@@H](CCC(=O)O)C(=O)N[C@@H](CC(C)C)C(=O)N[C@@H](Cc1c[nH]cn1)C(=O)N[C@@H](CCC(=O)O)C(=O)N[C@@H](CC(C)C)C(=O)N[C@@H](CCC(N)=O)C(=O)N[C@H](C(=O)N[C@@H](Cc1ccc(O)cc1)C(=O)N1CCC[C@H]1C(=O)N[C@@H](CCCNC(=N)N)C(=O)N[C@H](C(=O)N[C@@H](CCC(=O)O)C(=O)N[C@H](C(=O)NCC(=O)N[C@@H](CO)C(=O)N[C@@H](CCC(N)=O)C(=O)N[C@H](C(=O)N[C@@H](Cc1ccc(O)cc1)C(N)=O)[C@@H](C)O)[C@@H](C)O)[C@@H](C)O)[C@@H](C)O)[C@@H](C)O

IC50 [4]: 0.069 nM
IC50 [1]: 0.045 nM
B11: [N-terminal(C20 diacid-gGlu), des1, 9T, 21S, 23Y, 30S, 31G, 33Y]mimylin (peptide)
peptide: {C20 diacid-γGlu}-ASELSTATLGRLSAELHELSTYPRTETGSGSY-NH2
SMILES: CC(C)C[C@H](NC(=O)[C@H](CCCNC(=N)N)NC(=O)CNC(=O)[C@H](CC(C)C)NC(=O)[C@@H](NC(=O)[C@H](C)NC(=O)[C@@H](NC(=O)[C@H](CO)NC(=O)[C@H](CC(C)C)NC(=O)[C@H](CCC(=O)O)NC(=O)[C@H](CO)NC(=O)[C@H](C)NC(=O)CC[C@H](NC(=O)CCCCCCCCCCCCCCCCCCC(=O)O)C(=O)O)[C@@H](C)O)[C@@H](C)O)C(=O)N[C@@H](CO)C(=O)N[C@@H](C)C(=O)N[C@@H](CCC(=O)O)C(=O)N[C@@H](CC(C)C)C(=O)N[C@@H](Cc1c[nH]cn1)C(=O)N[C@@H](CCC(=O)O)C(=O)N[C@@H](CC(C)C)C(=O)N[C@@H](CO)C(=O)N[C@H](C(=O)N[C@@H](Cc1ccc(O)cc1)C(=O)N1CCC[C@H]1C(=O)N[C@@H](CCCNC(=N)N)C(=O)N[C@H](C(=O)N[C@@H](CCC(=O)O)C(=O)N[C@H](C(=O)NCC(=O)N[C@@H](CO)C(=O)NCC(=O)N[C@@H](CO)C(=O)N[C@@H](Cc1ccc(O)cc1)C(N)=O)[C@@H](C)O)[C@@H](C)O)[C@@H](C)O

IC50 [4]: 0.123 nM
Molecule: {C14 diacid}-ASELSTAALGRLSAELHELATLPRTETGSGSP-NH2

IC50 [2]: 0.773 nM
IC50 [3]: 0.14 nM
B12: [N-terminal(C14 diacid), des1, 30S, 31G]mimylin (peptide)
peptide: {C14 diacid}-ASELSTAALGRLSAELHELATLPRTETGSGSP-NH2
notes: mimylin derivative; des1 = residue 1 deleted; also called Ex. #51; 51

IC50 [2]: 0.037 nM
IC50 [3]: 0.024 nM
B13: [N-terminal(C16 diacid-gGlu), des1, 30S, 31G]mimylin (peptide)
peptide: {C16 diacid-γGlu}-ASELSTAALGRLSAELHELATLPRTETGSGSP-NH2
notes: mimylin derivative; des1 = residue 1 deleted; also called Ex. #47; 47
